According to patent publication EP4740966A1:
“And” between values parts separate entries of the source, which are not always exact repeats. Identical values can stand only once. Like-named read-outs stand apart in the source and are kept apart here.

How the values were obtained:
Assay in all cases: co-expression of chains A and B 1:1 in HEK293, Protein A, non-reduced SDS-PAGE band intensity
[1] = target: Human IgG1-Fc, chain B with D356C+T366S+L368A+Y407V (human) [IgG part: P0DOX5]
[2] = target: Human IgG1-Fc, chain B with D356C+T366S+L368A+Y407V (human) [IgG part: P0DOX5]; remark: listed apart in the source
[3] = target: Human IgG1-Fc, chain B with D356C+T366S+L368A+Y407V+F405K (human) [IgG part: P0DOX5]
[4] = target: Human IgG1-Fc, chain B with D356C+T366S+L368A+Y407V+F405K (human) [IgG part: P0DOX5]; remark: listed apart in the source
[5] = target: Human IgG1-Fc, chain B with D356C+T366S+L368A+Y407V+F405K+K360E+Q347E (human) [IgG part: P0DOX5]
[6] = target: Human IgG1-Fc, chain B with D356C+T366S+L368A+Y407V+F405K+Q347R (human) [IgG part: P0DOX5]
[7] = target: Human IgG1-Fc, chain B with D356C+T366S+L368A+Y407V+K360E+Q347E (human) [IgG part: P0DOX5]
[8] = target: Human IgG1-Fc, chain B with D356C+T366S+L368A+Y407V+Q347R (human) [IgG part: P0DOX5]
[9] = target: ScFv-Fc fusion protein (anti-Her2 single chain antibody-Fc), chain A with Y349C+T366W
[10] = target: ScFv-Fc fusion protein, chain A with T366W+F405K
[11] = target: ScFv-Fc fusion protein, chain A with T366W+F405K+D399S
[12] = target: ScFv-Fc fusion protein, chain A with T366W+F405K+Y349D+S354D
[13] = target: ScFv-Fc fusion protein, chain A with T366W+K409A
[14] = target: ScFv-Fc fusion protein, chain A with T366W+K409A+K392D
[15] = target: ScFv-Fc fusion protein, chain A with T366W+K409A+Y349D
[16] = target: ScFv-Fc fusion protein, chain A with T366W+K409A+Y349D+S354D
[17] = target: ScFv-Fc fusion protein, chain A with Y349C+T366W+F405K
[18] = target: ScFv-Fc fusion protein, chain A with Y349C+T366W+F405K; remark: listed apart in the source
[19] = target: ScFv-Fc fusion protein, chain A with Y349C+T366W+F405K; remark: listed apart in the source
[20] = target: ScFv-Fc fusion protein, chain A with Y349C+T366W+F405K+K360E+Q347E
[21] = target: ScFv-Fc fusion protein, chain A with Y349C+T366W+F405K+Q347R
[22] = target: ScFv-Fc fusion protein, chain A with Y349C+T366W+K409A
[23] = target: ScFv-Fc fusion protein, chain A with Y349C+T366W+K409A; remark: listed apart in the source
[24] = target: ScFv-Fc fusion protein, chain A with Y349C+T366W+K409A; remark: listed apart in the source
[25] = target: ScFv-Fc fusion protein, chain A with Y349C+T366W+K409A+K360E+Q347E
[26] = target: ScFv-Fc fusion protein, chain A with Y349C+T366W+K409A+Q347R
[27] = target: ScFv-Fc fusion protein, chain A with Y349C+T366W+K409E
[28] = target: VhH-Fc fusion protein (camel single domain antibody variable region-Fc), chain B with D356C+T366S+L368A+Y407V+F405K
[29] = target: VhH-Fc fusion protein, chain B with D356C+T366S+L368A+Y407V
[30] = target: VhH-Fc fusion protein, chain B with T366S+L368A+Y407V+D399S+F405K
[31] = target: VhH-Fc fusion protein, chain B with T366S+L368A+Y407V+K409A+E357A
[32] = target: VhH-Fc fusion protein, chain B with T366S+L368A+Y407V+K409A+K392D
[33] = target: VhH-Fc fusion protein, chain B with T366S+L368G+Y407A+K409A

ScFv-Fc fusion protein, chain A with Y349C+T366W+F405K, sequence (chain): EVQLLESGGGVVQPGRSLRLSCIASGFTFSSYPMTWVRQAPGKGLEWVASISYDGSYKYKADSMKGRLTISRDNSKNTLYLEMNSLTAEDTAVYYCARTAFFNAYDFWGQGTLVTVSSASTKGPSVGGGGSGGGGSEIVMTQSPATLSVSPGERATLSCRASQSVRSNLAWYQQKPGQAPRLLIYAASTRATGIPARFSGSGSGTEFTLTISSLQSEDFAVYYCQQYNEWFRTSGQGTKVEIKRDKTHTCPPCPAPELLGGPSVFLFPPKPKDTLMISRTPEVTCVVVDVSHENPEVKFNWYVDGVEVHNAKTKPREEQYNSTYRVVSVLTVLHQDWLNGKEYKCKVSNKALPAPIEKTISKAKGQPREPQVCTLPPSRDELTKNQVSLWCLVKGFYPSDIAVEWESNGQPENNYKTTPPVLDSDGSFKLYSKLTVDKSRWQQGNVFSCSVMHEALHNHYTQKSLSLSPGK
ScFv-Fc fusion protein, chain A with Y349C+T366W+K409A, sequence (chain): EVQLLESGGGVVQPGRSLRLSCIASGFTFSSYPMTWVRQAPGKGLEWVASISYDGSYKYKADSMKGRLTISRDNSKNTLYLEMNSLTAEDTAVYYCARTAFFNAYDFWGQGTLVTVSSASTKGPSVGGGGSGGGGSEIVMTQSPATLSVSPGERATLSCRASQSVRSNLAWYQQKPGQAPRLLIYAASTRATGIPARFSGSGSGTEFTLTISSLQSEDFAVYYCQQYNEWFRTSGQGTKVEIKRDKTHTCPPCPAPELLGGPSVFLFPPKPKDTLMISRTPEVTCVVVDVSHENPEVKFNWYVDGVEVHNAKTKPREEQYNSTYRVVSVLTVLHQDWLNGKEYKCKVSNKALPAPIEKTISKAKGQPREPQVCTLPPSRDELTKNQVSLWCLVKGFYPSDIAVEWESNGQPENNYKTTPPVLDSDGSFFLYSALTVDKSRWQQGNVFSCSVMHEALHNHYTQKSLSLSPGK
ScFv-Fc fusion protein (anti-Her2 single chain antibody-Fc), chain A with Y349C+T366W, sequence (chain): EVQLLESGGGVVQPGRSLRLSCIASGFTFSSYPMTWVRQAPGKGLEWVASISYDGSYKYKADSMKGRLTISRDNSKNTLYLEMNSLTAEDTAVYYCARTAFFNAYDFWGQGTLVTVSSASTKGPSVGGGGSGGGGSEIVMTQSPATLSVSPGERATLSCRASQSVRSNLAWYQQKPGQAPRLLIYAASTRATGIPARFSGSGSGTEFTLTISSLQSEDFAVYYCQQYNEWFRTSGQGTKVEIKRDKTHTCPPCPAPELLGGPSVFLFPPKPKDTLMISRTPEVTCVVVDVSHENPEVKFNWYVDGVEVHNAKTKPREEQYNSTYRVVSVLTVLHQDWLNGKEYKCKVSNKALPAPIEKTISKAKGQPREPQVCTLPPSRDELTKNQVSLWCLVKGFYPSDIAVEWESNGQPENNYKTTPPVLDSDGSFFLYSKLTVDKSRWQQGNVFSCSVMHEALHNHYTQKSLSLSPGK
ScFv-Fc fusion protein, chain A with Y349C+T366W+F405K+K360E+Q347E, sequence (chain): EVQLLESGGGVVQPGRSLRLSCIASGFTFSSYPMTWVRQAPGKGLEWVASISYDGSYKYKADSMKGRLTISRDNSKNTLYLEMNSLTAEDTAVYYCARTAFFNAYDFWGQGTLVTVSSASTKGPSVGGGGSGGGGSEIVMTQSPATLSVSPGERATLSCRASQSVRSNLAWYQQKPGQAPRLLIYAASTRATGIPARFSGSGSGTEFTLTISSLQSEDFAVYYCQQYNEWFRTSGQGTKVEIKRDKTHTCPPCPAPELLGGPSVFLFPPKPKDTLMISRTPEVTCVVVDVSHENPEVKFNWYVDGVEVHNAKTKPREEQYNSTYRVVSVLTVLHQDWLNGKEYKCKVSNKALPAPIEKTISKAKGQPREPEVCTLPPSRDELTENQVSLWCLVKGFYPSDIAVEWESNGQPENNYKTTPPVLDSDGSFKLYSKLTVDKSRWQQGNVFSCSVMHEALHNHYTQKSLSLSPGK
ScFv-Fc fusion protein, chain A with Y349C+T366W+K409A+K360E+Q347E, sequence (chain): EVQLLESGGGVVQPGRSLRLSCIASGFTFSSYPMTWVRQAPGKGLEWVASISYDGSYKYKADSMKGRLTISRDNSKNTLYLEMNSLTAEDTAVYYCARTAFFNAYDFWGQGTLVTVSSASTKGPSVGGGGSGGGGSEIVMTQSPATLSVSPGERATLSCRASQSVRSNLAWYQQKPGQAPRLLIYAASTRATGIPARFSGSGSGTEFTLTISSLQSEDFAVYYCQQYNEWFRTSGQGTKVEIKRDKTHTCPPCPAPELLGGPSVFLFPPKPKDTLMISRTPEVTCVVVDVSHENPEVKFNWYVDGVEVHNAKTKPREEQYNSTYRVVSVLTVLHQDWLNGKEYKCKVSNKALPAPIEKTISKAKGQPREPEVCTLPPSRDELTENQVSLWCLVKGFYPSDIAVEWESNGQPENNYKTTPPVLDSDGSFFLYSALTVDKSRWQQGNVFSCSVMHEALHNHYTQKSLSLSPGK
ScFv-Fc fusion protein, chain A with Y349C+T366W+K409E, sequence (chain): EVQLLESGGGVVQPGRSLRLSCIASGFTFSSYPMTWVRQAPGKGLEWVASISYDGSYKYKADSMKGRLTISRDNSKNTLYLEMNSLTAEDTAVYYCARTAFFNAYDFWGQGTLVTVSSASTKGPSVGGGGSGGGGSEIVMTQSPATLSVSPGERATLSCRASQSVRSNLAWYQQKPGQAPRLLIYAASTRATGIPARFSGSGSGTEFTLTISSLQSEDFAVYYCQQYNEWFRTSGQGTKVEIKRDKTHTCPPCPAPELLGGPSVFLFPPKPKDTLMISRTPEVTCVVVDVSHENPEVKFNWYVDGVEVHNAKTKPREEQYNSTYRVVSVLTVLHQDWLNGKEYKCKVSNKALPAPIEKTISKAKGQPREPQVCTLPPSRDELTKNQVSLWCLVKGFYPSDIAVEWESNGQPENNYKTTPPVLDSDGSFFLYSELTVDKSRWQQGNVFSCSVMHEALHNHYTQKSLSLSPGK
ScFv-Fc fusion protein, chain A with T366W+F405K, sequence (chain): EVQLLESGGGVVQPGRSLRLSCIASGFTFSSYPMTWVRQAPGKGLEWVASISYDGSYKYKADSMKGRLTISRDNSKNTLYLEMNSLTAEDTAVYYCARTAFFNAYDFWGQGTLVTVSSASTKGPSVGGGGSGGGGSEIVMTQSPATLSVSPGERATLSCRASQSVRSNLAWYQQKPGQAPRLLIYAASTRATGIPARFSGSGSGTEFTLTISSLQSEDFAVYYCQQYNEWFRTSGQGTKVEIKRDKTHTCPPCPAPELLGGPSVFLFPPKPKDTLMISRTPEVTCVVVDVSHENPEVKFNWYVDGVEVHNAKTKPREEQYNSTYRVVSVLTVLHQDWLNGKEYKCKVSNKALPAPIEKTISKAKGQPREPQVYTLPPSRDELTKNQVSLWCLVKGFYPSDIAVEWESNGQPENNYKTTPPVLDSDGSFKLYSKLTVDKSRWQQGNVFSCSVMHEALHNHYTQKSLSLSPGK
ScFv-Fc fusion protein, chain A with T366W+K409A+Y349D, sequence (chain): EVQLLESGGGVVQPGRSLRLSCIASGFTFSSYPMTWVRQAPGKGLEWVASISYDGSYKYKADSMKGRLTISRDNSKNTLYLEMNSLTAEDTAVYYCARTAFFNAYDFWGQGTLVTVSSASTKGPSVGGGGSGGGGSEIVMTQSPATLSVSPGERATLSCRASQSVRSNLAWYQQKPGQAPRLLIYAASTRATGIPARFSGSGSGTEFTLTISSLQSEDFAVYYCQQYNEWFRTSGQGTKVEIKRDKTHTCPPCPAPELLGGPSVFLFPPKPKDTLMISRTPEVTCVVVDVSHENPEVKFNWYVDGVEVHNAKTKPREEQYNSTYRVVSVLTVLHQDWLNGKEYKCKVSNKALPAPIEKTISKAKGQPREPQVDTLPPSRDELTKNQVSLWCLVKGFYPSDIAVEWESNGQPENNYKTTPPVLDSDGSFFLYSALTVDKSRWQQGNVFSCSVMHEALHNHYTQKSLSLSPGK
ScFv-Fc fusion protein, chain A with T366W+F405K+Y349D+S354D, sequence (chain): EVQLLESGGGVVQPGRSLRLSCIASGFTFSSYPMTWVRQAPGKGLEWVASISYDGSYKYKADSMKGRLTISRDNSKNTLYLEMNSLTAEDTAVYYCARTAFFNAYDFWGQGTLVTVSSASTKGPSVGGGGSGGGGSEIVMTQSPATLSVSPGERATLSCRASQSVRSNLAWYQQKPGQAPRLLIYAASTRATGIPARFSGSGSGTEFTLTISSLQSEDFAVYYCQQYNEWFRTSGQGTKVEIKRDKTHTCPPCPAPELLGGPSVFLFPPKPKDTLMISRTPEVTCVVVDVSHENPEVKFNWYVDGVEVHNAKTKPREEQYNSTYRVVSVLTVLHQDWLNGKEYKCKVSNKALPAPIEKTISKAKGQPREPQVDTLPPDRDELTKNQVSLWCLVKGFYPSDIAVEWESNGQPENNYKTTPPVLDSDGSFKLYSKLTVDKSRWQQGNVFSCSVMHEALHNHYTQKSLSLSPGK
ScFv-Fc fusion protein, chain A with T366W+K409A, sequence (chain): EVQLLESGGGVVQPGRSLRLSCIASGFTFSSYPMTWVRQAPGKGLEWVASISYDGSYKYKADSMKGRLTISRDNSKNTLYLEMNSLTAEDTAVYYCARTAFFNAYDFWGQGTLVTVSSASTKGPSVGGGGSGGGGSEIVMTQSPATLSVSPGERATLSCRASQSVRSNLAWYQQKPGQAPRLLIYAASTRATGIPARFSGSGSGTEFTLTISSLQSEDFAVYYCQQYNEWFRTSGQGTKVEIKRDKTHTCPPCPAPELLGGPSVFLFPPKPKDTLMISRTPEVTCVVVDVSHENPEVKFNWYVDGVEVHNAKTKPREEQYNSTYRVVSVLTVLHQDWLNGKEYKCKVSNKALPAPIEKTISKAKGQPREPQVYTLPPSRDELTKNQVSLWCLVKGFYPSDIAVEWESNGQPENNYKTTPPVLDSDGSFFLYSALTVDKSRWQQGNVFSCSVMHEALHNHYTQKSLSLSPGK

## Human IgG1-Fc, chain B with D356C+T366S+L368A+Y407V (from UniProt P0DOX5 223-449)
[1]
  Fc homodimer (%): 23%
[2]
  Fc homodimer (%): 20%

## Human IgG1-Fc, chain B with D356C+T366S+L368A+Y407V+F405K (from UniProt P0DOX5 223-449)
[3]
  Fc homodimer (%): 10%
[4]
  Fc homodimer (%): 18% and 13%

## Human IgG1-Fc, chain B with D356C+T366S+L368A+Y407V+F405K+K360E+Q347E (from UniProt P0DOX5 223-449)
[5]
  Fc homodimer (%): 8%

## Human IgG1-Fc, chain B with D356C+T366S+L368A+Y407V+F405K+Q347R (from UniProt P0DOX5 223-449)
[6]
  Fc homodimer (%): 12%

## Human IgG1-Fc, chain B with D356C+T366S+L368A+Y407V+K360E+Q347E (from UniProt P0DOX5 223-449)
[7]
  Fc homodimer (%): 24%

## Human IgG1-Fc, chain B with D356C+T366S+L368A+Y407V+Q347R (from UniProt P0DOX5 223-449)
[8]
  Fc homodimer (%): 14%

## ScFv-Fc fusion protein (anti-Her2 single chain antibody-Fc), chain A with Y349C+T366W
[9]
  ScFv-Fc homodimer (%): 29% and 24%

## ScFv-Fc fusion protein, chain A with T366W+F405K
[10]
  ScFv-Fc homodimer (%): 5%

## ScFv-Fc fusion protein, chain A with T366W+F405K+D399S
[11]
  ScFv-Fc homodimer (%): 6%

## ScFv-Fc fusion protein, chain A with T366W+F405K+Y349D+S354D
[12]
  ScFv-Fc homodimer (%): 9%

## ScFv-Fc fusion protein, chain A with T366W+K409A
[13]
  ScFv-Fc homodimer (%): 15%

## ScFv-Fc fusion protein, chain A with T366W+K409A+K392D
[14]
  ScFv-Fc homodimer (%): 7%

## ScFv-Fc fusion protein, chain A with T366W+K409A+Y349D
[15]
  ScFv-Fc homodimer (%): 14%

## ScFv-Fc fusion protein, chain A with T366W+K409A+Y349D+S354D
[16]
  ScFv-Fc homodimer (%): 10%

## ScFv-Fc fusion protein, chain A with Y349C+T366W+F405K
[17]
  ScFv-Fc homodimer (%): 17%
[18]
  ScFv-Fc homodimer (%): 9%
[19]
  ScFv-Fc homodimer (%): 10%

## ScFv-Fc fusion protein, chain A with Y349C+T366W+F405K+K360E+Q347E
[20]
  ScFv-Fc homodimer (%): 14%

## ScFv-Fc fusion protein, chain A with Y349C+T366W+F405K+Q347R
[21]
  ScFv-Fc homodimer (%): 14%

## ScFv-Fc fusion protein, chain A with Y349C+T366W+K409A
[22]
  ScFv-Fc homodimer (%): 21%
[23]
  ScFv-Fc homodimer (%): 13%
[24]
  ScFv-Fc homodimer (%): 10%

## ScFv-Fc fusion protein, chain A with Y349C+T366W+K409A+K360E+Q347E
[25]
  ScFv-Fc homodimer (%): 24%

## ScFv-Fc fusion protein, chain A with Y349C+T366W+K409A+Q347R
[26]
  ScFv-Fc homodimer (%): 21%

## ScFv-Fc fusion protein, chain A with Y349C+T366W+K409E
[27]
  ScFv-Fc homodimer (%): 25%

## VhH-Fc fusion protein (camel single domain antibody variable region-Fc), chain B with D356C+T366S+L368A+Y407V+F405K
[28]
  VhH-Fc homodimer (%): 19%

## VhH-Fc fusion protein, chain B with D356C+T366S+L368A+Y407V
[29]
  VhH-Fc homodimer (%): 27%

## VhH-Fc fusion protein, chain B with T366S+L368A+Y407V+D399S+F405K
[30]
  VhH-Fc homodimer (%): 13%

## VhH-Fc fusion protein, chain B with T366S+L368A+Y407V+K409A+E357A
[31]
  VhH-Fc homodimer (%): 7%

## VhH-Fc fusion protein, chain B with T366S+L368A+Y407V+K409A+K392D
[32]
  VhH-Fc homodimer (%): 13%

## VhH-Fc fusion protein, chain B with T366S+L368G+Y407A+K409A
[33]
  VhH-Fc homodimer (%): 7%
